Tests used:
[1] = molecular target: T1, CD73 protein (UniProt P21589 27-549); assay: cell-based or functional assay
T1 sequence (looked up): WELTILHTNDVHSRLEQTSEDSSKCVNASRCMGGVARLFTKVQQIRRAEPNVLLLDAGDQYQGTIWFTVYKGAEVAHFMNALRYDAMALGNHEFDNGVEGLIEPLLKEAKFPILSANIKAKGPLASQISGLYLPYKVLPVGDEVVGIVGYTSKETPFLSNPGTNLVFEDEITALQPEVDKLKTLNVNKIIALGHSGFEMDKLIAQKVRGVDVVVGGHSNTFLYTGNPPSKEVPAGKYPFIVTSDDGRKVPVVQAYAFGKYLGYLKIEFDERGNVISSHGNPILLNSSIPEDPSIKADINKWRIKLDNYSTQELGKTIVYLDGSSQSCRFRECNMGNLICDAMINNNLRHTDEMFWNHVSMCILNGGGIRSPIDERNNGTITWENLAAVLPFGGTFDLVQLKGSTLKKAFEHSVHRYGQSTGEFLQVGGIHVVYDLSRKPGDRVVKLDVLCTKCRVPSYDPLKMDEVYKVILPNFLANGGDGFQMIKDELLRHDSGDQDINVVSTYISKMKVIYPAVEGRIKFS

[2] = molecular target: T1, CD73 protein; assay: Octet BLI; Ab-BN3 on protein A sensors, CD73 in solution
[3] = molecular target: T1, CD73 protein; assay: cell-based or functional assay; remark: listed apart in the source
[4] = molecular target: NaV1.7 (UniProt Q15858 1-1988); assay: cell-based or functional assay
Sequence of NaV1.7 (Q15858 whole entry): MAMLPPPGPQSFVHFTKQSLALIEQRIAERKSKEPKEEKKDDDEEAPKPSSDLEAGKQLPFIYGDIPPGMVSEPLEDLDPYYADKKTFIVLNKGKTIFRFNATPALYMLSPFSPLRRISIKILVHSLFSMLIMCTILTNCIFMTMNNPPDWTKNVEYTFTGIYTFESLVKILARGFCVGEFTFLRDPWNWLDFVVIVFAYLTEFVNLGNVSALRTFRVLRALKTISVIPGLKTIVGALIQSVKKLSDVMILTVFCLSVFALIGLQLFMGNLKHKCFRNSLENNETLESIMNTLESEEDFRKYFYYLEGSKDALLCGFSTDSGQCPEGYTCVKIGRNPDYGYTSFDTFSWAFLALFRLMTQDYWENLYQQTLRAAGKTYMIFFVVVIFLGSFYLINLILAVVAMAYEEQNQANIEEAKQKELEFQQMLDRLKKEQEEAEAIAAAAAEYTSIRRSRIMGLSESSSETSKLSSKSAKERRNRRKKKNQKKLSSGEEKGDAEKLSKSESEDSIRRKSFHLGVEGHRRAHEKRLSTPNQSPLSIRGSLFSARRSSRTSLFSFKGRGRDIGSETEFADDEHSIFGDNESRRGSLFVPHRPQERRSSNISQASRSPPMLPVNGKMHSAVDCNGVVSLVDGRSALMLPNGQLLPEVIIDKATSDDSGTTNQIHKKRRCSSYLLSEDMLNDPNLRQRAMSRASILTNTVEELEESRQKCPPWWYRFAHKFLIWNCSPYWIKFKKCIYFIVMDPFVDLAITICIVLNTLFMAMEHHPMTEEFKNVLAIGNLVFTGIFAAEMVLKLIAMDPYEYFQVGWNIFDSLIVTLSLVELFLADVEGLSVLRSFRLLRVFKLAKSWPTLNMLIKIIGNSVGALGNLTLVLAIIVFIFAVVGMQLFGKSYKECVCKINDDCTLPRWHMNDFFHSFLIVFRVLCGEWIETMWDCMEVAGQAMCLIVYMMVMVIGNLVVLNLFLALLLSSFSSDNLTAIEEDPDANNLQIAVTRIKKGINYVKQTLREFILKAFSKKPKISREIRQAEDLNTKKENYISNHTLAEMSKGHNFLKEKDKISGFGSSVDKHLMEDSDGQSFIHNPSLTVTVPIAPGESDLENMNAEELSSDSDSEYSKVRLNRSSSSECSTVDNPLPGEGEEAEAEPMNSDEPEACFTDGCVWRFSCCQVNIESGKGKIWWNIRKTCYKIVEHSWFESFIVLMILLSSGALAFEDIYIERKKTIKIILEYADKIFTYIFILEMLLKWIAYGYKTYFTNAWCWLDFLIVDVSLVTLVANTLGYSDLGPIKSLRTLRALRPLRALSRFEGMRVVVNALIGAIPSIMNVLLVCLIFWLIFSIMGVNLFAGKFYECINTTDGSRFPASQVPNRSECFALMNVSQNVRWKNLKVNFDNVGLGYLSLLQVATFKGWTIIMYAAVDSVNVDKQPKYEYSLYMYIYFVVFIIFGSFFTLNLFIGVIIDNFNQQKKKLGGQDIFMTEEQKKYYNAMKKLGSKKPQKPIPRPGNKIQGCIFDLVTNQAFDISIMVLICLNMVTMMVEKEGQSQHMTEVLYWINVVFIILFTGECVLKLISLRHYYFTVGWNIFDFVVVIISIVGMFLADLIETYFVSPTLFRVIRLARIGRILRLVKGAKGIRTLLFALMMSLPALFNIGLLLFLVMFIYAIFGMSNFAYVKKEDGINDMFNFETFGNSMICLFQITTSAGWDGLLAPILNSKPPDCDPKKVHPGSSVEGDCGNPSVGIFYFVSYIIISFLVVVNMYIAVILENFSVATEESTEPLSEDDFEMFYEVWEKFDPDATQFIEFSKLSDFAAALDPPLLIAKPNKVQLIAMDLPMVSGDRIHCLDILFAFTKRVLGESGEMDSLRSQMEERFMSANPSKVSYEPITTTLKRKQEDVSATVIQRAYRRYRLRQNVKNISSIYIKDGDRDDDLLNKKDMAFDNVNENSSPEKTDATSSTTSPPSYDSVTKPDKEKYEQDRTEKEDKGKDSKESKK

[5] = molecular target: NaV1.2 (UniProt Q99250 1-2005); assay: cell-based or functional assay
Sequence of NaV1.2 (Q99250 whole entry): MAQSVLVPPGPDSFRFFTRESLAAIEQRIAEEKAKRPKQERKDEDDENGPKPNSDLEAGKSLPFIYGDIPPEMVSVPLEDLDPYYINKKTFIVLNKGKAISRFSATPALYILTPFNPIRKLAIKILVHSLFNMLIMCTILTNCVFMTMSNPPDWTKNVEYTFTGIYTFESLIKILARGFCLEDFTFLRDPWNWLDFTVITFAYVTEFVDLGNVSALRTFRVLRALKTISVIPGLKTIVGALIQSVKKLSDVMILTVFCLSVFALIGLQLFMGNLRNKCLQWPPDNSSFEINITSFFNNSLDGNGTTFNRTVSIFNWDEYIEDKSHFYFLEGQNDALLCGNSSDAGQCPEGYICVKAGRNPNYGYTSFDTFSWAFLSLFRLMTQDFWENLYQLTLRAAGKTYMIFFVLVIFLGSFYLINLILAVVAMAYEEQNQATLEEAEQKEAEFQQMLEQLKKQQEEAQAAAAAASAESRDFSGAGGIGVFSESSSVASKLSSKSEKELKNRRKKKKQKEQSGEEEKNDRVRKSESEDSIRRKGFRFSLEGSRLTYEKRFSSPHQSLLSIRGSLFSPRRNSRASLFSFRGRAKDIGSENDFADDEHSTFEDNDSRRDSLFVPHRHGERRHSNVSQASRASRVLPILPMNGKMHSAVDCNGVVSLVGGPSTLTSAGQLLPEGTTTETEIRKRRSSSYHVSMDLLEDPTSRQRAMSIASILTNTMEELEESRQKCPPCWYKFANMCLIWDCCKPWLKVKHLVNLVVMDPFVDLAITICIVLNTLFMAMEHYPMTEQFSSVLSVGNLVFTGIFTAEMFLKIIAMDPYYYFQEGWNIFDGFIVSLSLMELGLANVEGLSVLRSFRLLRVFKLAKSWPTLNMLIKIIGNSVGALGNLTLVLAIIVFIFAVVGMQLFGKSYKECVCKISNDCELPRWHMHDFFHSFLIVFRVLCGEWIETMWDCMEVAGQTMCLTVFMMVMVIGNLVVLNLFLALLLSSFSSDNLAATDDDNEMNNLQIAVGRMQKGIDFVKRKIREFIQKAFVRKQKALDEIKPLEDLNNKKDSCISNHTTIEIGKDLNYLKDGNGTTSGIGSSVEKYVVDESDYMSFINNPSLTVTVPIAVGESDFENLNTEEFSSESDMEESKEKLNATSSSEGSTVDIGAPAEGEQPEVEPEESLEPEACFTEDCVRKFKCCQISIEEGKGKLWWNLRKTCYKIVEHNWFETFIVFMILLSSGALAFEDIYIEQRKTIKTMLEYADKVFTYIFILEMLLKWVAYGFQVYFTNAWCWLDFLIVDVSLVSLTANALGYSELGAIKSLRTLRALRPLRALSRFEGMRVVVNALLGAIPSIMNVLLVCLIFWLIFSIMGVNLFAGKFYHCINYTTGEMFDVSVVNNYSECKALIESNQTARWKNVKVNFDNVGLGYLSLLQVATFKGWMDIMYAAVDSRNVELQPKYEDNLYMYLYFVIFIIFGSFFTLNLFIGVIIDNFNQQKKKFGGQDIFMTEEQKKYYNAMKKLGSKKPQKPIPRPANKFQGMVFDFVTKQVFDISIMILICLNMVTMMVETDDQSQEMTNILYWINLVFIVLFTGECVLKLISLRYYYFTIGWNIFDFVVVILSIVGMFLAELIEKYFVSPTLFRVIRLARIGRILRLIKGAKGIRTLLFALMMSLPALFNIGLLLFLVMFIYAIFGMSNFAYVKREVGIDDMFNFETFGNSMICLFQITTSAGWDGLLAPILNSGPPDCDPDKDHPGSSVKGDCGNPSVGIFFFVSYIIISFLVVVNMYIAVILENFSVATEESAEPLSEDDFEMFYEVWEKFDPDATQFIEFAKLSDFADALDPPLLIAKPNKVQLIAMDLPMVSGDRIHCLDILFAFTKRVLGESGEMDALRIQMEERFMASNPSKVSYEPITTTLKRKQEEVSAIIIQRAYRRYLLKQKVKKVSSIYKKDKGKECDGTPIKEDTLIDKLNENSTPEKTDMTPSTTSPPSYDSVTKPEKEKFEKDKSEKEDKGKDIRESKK

Binder | IC90 of inhibition of CD73 (malachite green phosphate assay) [1] | Kd [2] | koff [2] | kon [2] | IC50 of inhibition of CD73, against that of 10A7-BN3 [3] | IC50 on HEK293-NaV1.7 cells, by curve fitting [4] | IC50 on HEK293-NaV1.2 cells [5]
10A7-BN3 (antibody, V domains shown, position marked * in QQ*YTTPPT (light chain residue 91): unnatural amino acid (UAA) with azide, conjugated to BN3 (PSB12379-PEG3-DBCO), also called 10A7 Ab-BN3) VH: EVQLVESGGGLVQPGGSLRLSCAASGFAFSSYSMSWVRQAPGKGLEWIGSIYYSGSTYYNPSLKSRVTISADTSKNTAYLQMNSLRAEDTAVYYCARNSGFETLDYWGQGTLVTVSS VL: DIQMTQSPSSLSASVGDRVTITCRASQGISRWLAWYQQKPGKAPNLLIYGASTLQSGVPPRFSGSRSGTDFTLTISSLQPEDFATYYCQQXYTTPPTFGQGTKLEI | 2.92 nM | 0.888 nM | 0.000191 s⁻¹ | 215000 M⁻¹ s⁻¹ | – | – | –
10D8-BN3 (antibody, V domains shown, position marked * in QQ*YTTPPT (light chain residue 91): unnatural amino acid (UAA) with azide, conjugated to BN3 (PSB12379-PEG3-DBCO), also called 10D8 Ab-BN3) VH: EVQLVESGGGLVQPGGSLRLSCAASGFTFSTYAIHWVRQAPGKGLEWVSSISGSGGGGGTYYADSVKGRFTISADTSKNTAYLQMNSLRAEDTAVYYCARDRGFLQFDYWGQGTLVTVSS VL: DIQMTQSPSSLSASVGDRVTITCRASQSISSWLAWYQQKPGKAPKLLIYDVSNVQTGVPSRFSGSRSGTDFTLTISSLQPEDFATYYCQQXYTTPPTFGQGTKLEI | > 100 nM | 1.35 nM | 0.000275 s⁻¹ | 204000 M⁻¹ s⁻¹ | – | – | –
ABN3-2G-BN3 (antibody, V domains shown, not fully specified; position marked * in QQ*YTTPPT (light chain residue 91): unnatural amino acid (UAA) with azide, conjugated to BN3 (PSB12379-PEG3-DBCO), also called ABN3-2G Ab-BN3) VH: EVQLVESGGGLVQPGGSLRLSCAASGITFGSYTMSWVRQAPGKGLEWIGTVHYTGKTFYSPSLKSRVTISADTSKNTAYLQMNSLRAEDTAVYYCARGRDFGEPPYVRAFDIWGQGTLVTVSS VL: DIQMTQSPSSLSASVGDRVTITCQASHDISKYLNWYQQKPGKAPKLLIYDASNLETGVPSRFSGSRSGTDFTLTISSLQPEDFATYYCQQXYTTPPTFGQGTKLEI | 25.9 nM | 0.887 nM | 0.000271 s⁻¹ | 305000 M⁻¹ s⁻¹ | – | – | –
10A7-Fab-BN3 (Fab, V domains shown, position marked * in QQ*YTTPPT (light chain residue 91): unnatural amino acid (UAA) with azide, conjugated to BN3 (PSB12379-PEG3-DBCO)) VH: EVQLVESGGGLVQPGGSLRLSCAASGFAFSSYSMSWVRQAPGKGLEWIGSIYYSGSTYYNPSLKSRVTISADTSKNTAYLQMNSLRAEDTAVYYCARNSGFETLDYWGQGTLVTVSS VL: DIQMTQSPSSLSASVGDRVTITCRASQGISRWLAWYQQKPGKAPNLLIYGASTLQSGVPPRFSGSRSGTDFTLTISSLQPEDFATYYCQQXYTTPPTFGQGTKLEI | – | – | – | – | ~0.2 fold of the IC50 of 10A7-BN3 | – | –
14H4-PEG3-ASF (antibody, V domains shown, position marked * in QQ*YTTPPT (light chain residue 91): unnatural amino acid (UAA) with azide, conjugated to ASF-PEG3-DBCO) VH: EVQLVESGGGLVQPGGSLRLSCAASGFSFSKFWMHWVRQAPGKGLEWVAFMAHDESNKNYADSVKGRFTISADTSKNTAYLQMNSLRAEDTAVYYCARDKVCNTFDIWGQGTLVTVSS VL: DIQMTQSPSSLSASVGDRVTITCRASQSISSDLNWYQQKPGKAPKLLIYRATFLESGVPSRFSGSRSGTDFTLTISSLQPEDFATYYCQQXYTTPPTFGQGTKLEI | – | – | – | – | – | > 500 nM | 2.73 nM
14E6-PEG3-ASF (antibody, V domains shown, position marked * in QQ*YTTPPT (light chain residue 91): unnatural amino acid (UAA) with azide, conjugated to ASF-PEG3-DBCO) VH: EVQLVESGGGLVQPGGSLRLSCAASGFTFSNFAMHWVRQAPGKGLEYVSAISGGNGGGTYYADSAKGRFTISADTSKNTAYLQMNSLRAEDTAVYYCAREGNYCLDYWGQGTLVTVSS VL: DIQMTQSPSSLSASVGDRVTITCRASQPISDWLAWYQQKPGKAPKSLIYDAYNLQSGVPPRFSGSRSGTDFTLTISSLQPEDFATYYCQQXYTTPPTFGQGTKLEI | – | – | – | – | – | – | 5.02 nM
ABN3-2B-BN3 (antibody, V domains shown, not fully specified; position marked * in QQ*YTTPPT (light chain residue 91): unnatural amino acid (UAA) with azide, conjugated to BN3 (PSB12379-PEG3-DBCO), also called ABN3-2B Ab-BN3; ABN-2B) VH: EVQLVESGGGLVQPGGSLRLSCAASGFTFSSYWMHWVRQAPGKGLEWVSAVSGSGDSTYYADSVKGRFTISADTSKNTAYLQMNSLRAEDTAVYYCAREGDWGLDYWGQGTLVTVSS VL: DIQMTQSPSSLSASVGDRVTITCRASQGINNYLAWYQQKPGKAPKLLIYDASNLETGVPSRFSGSRSGTDFTLTISSLQPEDFATYYCQQXYTTPPTFGQGTKLEI | – | 3.16 nM | 0.000582 s⁻¹ | 185000 M⁻¹ s⁻¹ | – | – | –

Reference: patent US20260151499A1 (TSINGHUA UNIVERSITY, published 2026)
